Assays:
[1] = target: T1, VcDnaB (Vibrio cholerae, UniProt A0A085R2T8 1-468); assay: BLI; 1 mM ATP?; 100 nM VcDnaB + 25-100 nM VcDciA; loading increased, maximal at 25 nM; BLI: 50 mM Hepes pH 7.0, 150 mM NaCl, 0.1% Tween, 1 mM ATP, temperature not stated; NMR: 20 mM phosphate pH 5.6, 50 mM NaCl, 303 K (also 293 K), 26 uM protein; conditions: protein: recombinant; chain copies: 6; label: 5' biotin
[2] = target: T1, VcDnaB; assay: BLI; ATP; + VcDciA 25-100 nM; comparable to ssDNA; BLI: 50 mM Hepes pH 7.0, 150 mM NaCl, 0.1% Tween, 1 mM ATP, temperature not stated; NMR: 20 mM phosphate pH 5.6, 50 mM NaCl, 303 K (also 293 K), 26 uM protein; conditions: protein: recombinant; chain copies: 6; label: 5' biotin on strand 1; fork, 38 nt hybridized zone; non-complementary tails (strand 1 3' side, strand 2 5' side); 5' overhang 2 nt (AA) of strand 1

Row | Binder | binding result [1] | binding result [2]
1 | ssDNA oso23 (ssDNA) DNA: AAGCGTGGTGAAACCTACCTCTGATTCGAAACCTTCACTTTACGTGGTCTGGCGTGGTGAATGTTCGTCGGCGTGCTCGA | binds | –
2 | foDNA oso23/oso18 (dsDNA) DNA 1: AAGCGTGGTGAAACCTACCTCTGATTCGAAACCTTCACTTTACGTGGTCTGGCGTGGTGAATGTTCGTCGGCGTGCTCGA DNA 2: CCAGGAATACGGCAAGTTGGAGGCCGGGCTGGATGGAGACTAAGCTTTGGAAGTGAAGGTTTCGAATCAGAGGTAGGTTTCACCACGC | – | binds

— publication PMC9865707, “Structural Insights of the DciA Helicase Loader in Its Relationship with DNA”
